The text below walks through data of patent EP4713370A2 (dated 2026).

B1: ch44G2/ch3-7 Fc-silenced (bispecific antibody, human IgG1, kappa, L234A L235A)
heavy: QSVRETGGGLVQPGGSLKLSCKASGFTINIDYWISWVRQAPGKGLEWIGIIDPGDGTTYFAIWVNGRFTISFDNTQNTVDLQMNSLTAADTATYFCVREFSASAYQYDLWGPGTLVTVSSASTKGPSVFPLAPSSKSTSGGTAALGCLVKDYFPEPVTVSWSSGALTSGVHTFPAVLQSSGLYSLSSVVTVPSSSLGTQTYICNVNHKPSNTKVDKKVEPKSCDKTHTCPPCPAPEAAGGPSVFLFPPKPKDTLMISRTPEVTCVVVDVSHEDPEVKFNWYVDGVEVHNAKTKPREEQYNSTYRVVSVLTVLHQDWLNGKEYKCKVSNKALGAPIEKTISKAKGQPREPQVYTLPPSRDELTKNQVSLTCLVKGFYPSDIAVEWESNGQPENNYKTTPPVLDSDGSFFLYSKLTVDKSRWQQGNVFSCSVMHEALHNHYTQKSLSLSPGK
light: DLVMTQTPSSVSAAVGGTVSINCRASEDIENYLAWYQQKPGQPPKLLIYRASTLSSGVSSRFSGSGSGTEFTLTISGVQPDDAATYYCQQGYRNSNVDNPFGGGTEMVVKRTVAAPSVFIFPPSDEQLKSGTASVVCLLNNFYPREAKVQWKVDNALQSGNSQESVTEQDSKDSTYSLSSTLTLSKADYEKHKVYACEVTHQGLSSPVTKSFNRGECGGGGSGGGGSGGGGSGGGGSAFELTQTPSSVEAAVGGTVTINCQASQDIYIYLAWYQQKPGQPPKLLIYSASTLASGVSSRFTGSRSGTQFTLTISDLEPADAATYYCQSYDGTSNTGFGGGTEVVVRGGGGSGGGGSGGGGSGGGGSQSLEESGGRLVTPGTPLTLTCTVSGFSPSSYYMSWVRQAPGKGLEYIGIIFSGGSTWYASWAKGRVTISRTSTTVDLKMTSLTTEDTATYFCARGDAVGSGYWGLWGPGTLVTVSS
notes: LC format: the NKp46 scFv (VL-GS-VH) is joined to the C terminus of the anti-CD79b light chain, with LALAPG silenced Fc; also called CD79b/NKp46 bispecific antibody; 44G2/3-7
B2: ch44G2/ch6-1 Fc-silenced (bispecific antibody, human IgG1, kappa, L234A L235A)
heavy: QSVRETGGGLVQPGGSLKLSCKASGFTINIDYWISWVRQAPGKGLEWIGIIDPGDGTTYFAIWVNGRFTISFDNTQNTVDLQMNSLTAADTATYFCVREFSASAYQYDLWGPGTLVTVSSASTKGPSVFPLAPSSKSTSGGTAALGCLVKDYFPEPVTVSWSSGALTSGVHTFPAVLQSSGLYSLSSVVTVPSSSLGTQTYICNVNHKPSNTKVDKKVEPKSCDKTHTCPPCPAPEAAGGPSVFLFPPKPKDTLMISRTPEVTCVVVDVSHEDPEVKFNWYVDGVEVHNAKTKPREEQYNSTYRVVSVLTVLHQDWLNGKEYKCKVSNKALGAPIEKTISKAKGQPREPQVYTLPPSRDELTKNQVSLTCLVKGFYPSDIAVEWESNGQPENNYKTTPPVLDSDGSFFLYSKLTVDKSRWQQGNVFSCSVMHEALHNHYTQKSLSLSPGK
light: DLVMTQTPSSVSAAVGGTVSINCRASEDIENYLAWYQQKPGQPPKLLIYRASTLSSGVSSRFSGSGSGTEFTLTISGVQPDDAATYYCQQGYRNSNVDNPFGGGTEMVVKRTVAAPSVFIFPPSDEQLKSGTASVVCLLNNFYPREAKVQWKVDNALQSGNSQESVTEQDSKDSTYSLSSTLTLSKADYEKHKVYACEVTHQGLSSPVTKSFNRGECGGGGSGGGGSGGGGSGGGGSADVVMTQTPASVSEPVGGTITINCQASENIYSSLAWYQQKPGQPPKLLMYDVSDLASGVPSRFSGSGSGTEFALTISDVQPDDAATYFCLGGYPSNNYRMAFGGGTEVVVKGGGGSGGGGSGGGGSGGGGSQSLEESGGGLVQPEGSLTLTCTASGFSFSSSAWICWVRQAPGKGLEWIGCINTVSVNAYYASWAKGRFTISKTSSTTVTLQVTSLTAADTATHFCARNPYNSLRLWGPGTLVTVSS
notes: LC format, LALAPG silenced Fc; also called CD79b/NKp46 bispecific antibody; 44G2/6-1
B3: ch44G2/ch5-13 Fc-silenced (bispecific antibody, human IgG1, kappa, L234A L235A)
heavy: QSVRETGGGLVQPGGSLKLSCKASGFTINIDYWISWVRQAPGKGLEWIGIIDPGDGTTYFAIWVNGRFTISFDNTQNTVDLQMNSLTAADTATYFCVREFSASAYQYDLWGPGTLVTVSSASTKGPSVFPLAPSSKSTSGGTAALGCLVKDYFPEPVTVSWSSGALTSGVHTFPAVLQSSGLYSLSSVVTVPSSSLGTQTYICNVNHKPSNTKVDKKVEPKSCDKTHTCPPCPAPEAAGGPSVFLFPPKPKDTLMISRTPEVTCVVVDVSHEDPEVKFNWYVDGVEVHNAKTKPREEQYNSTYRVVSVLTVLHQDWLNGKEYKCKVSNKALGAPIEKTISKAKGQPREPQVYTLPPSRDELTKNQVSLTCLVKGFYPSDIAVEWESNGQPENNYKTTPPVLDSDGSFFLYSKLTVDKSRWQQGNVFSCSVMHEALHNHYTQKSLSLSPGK
light: DLVMTQTPSSVSAAVGGTVSINCRASEDIENYLAWYQQKPGQPPKLLIYRASTLSSGVSSRFSGSGSGTEFTLTISGVQPDDAATYYCQQGYRNSNVDNPFGGGTEMVVKRTVAAPSVFIFPPSDEQLKSGTASVVCLLNNFYPREAKVQWKVDNALQSGNSQESVTEQDSKDSTYSLSSTLTLSKADYEKHKVYACEVTHQGLSSPVTKSFNRGECGGGGSGGGGSGGGGSGGGGSAYDMTQTPASVEVAVGGTVTIKCQASQSISTALAWYQQKPGQPPKLLIYKASTLASGVSSRFKGSGSGTQFTLTISGVEPADAATYYCQQGYSRSNVDNVFGGGTEVVVKGGGGSGGGGSGGGGSGGGGSQSVEESGGRLVTPGTPLTLTCTVSGFSLSSYHMSWVRQAPGKGLEWIGYILANTDSYYANWAKGRFTISKTSTTVDLKITSPTTEDTATYFCARYDNHDAAYSTLWGPGTLVTVSS
notes: LC format, LALAPG silenced Fc; also called CD79b/NKp46 bispecific antibody; 44G2/5-13
B4: ch44G2/ch6-1 (HC) Fc-optimized (bispecific antibody, human IgG1, kappa)
heavy: QSVRETGGGLVQPGGSLKLSCKASGFTINIDYWISWVRQAPGKGLEWIGIIDPGDGTTYFAIWVNGRFTISFDNTQNTVDLQMNSLTAADTATYFCVREFSASAYQYDLWGPGTLVTVSSASTKGPSVFPLAPSSKSTSGGTAALGCLVKDYFPEPVTVSWNSGALTSGVHTFPAVLQSSGLYSLSSVVTVPSSSLGTQTYICNVNHKPSNTKVDKRVEPKSCDKTHTCPPCPAPELLAGPSVFLFPPKPKDTLMISRTPEVTCVVVDVSHEDPEVKFNWYVDGVEVHNAKTKPREEQYNSTYRVVSVLTVLHQDWLNGKEYKCKVSNKALPLPEEKTISKAKGQPREPQVYTLPPSRDELTKNQVSLTCLVKGFYPSDIAVEWESNGQPENNYKTTPPVLDSDGSFFLYSKLTVDKSRWQQGNVFSCSVMHEALHNHYTQKSLSLSPGKGGGGSGGGGSGGGGSADVVMTQTPASVSEPVGGTITINCQASENIYSSLAWYQQKPGQPPKLLMYDVSDLASGVPSRFSGSGSGTEFALTISDVQPDDAATYFCLGGYPSNNYRMAFGGGTEVVVKGGGGSGGGGSGGGGSGGGGSQSLEESGGGLVQPEGSLTLTCTASGFSFSSSAWICWVRQAPGKGLEWIGCINTVSVNAYYASWAKGRFTISKTSSTTVTLQVTSLTAADTATHFCARNPYNSLRLWGPGTLVTVSS
light: DLVMTQTPSSVSAAVGGTVSINCRASEDIENYLAWYQQKPGQPPKLLIYRASTLSSGVSSRFSGSGSGTEFTLTISGVQPDDAATYYCQQGYRNSNVDNPFGGGTEMVVKRTVAAPSVFIFPPSDEQLKSGTASVVCLLNNFYPREAKVQWKVDNALQSGNSQESVTEQDSKDSTYSLSSTLTLSKADYEKHKVYACEVTHQGLSSPVTKSFNRGEC
notes: HC format: the NKp46 scFv stands at the C terminus of the heavy chain Fc, with optimized Fc; also called chimeric CD79b/NKp46 bispecific antibody; NK cell engager
B5: ch44G2/ch6-1 (LC) Fc-optimized (bispecific antibody, human IgG1, kappa)
heavy: QSVRETGGGLVQPGGSLKLSCKASGFTINIDYWISWVRQAPGKGLEWIGIIDPGDGTTYFAIWVNGRFTISFDNTQNTVDLQMNSLTAADTATYFCVREFSASAYQYDLWGPGTLVTVSSASTKGPSVFPLAPSSKSTSGGTAALGCLVKDYFPEPVTVSWNSGALTSGVHTFPAVLQSSGLYSLSSVVTVPSSSLGTQTYICNVNHKPSNTKVDKRVEPKSCDKTHTCPPCPAPELLAGPSVFLFPPKPKDTLMISRTPEVTCVVVDVSHEDPEVKFNWYVDGVEVHNAKTKPREEQYNSTYRVVSVLTVLHQDWLNGKEYKCKVSNKALPLPEEKTISKAKGQPREPQVYTLPPSRDELTKNQVSLTCLVKGFYPSDIAVEWESNGQPENNYKTTPPVLDSDGSFFLYSKLTVDKSRWQQGNVFSCSVMHEALHNHYTQKSLSLSPGK
light: B2 light
notes: LC format: the NKp46 scFv stands at the C terminus of the anti-CD79b light chain, with optimized Fc (G236A, A330L, I332E, EU numbering); also called chimeric CD79b/NKp46 bispecific antibody; NK cell engager
B6: h44G2/h6-1 (HC) Fc-optimized (bispecific antibody, human IgG1, kappa)
heavy: EQQLVETGGGLIQPGGSLRLSCAASGFTINIDYWISWVRQAPGKGLEWIGIIDPGDGTTYFAIWVSGRFTISFDNSKNTVYLQMNSLRAEDTAVYFCVREFSASAYQYDLWGPGTLVTVSSASTKGPSVFPLAPSSKSTSGGTAALGCLVKDYFPEPVTVSWNSGALTSGVHTFPAVLQSSGLYSLSSVVTVPSSSLGTQTYICNVNHKPSNTKVDKKVEPKSCDKTHTCPPCPAPELLAGPSVFLFPPKPKDTLMISRTPEVTCVVVDVSHEDPEVKFNWYVDGVEVHNAKTKPREEQYNSTYRVVSVLTVLHQDWLNGKEYKCKVSNKALPLPEEKTISKAKGQPREPQVYTLPPSRDELTKNQVSLTCLVKGFYPSDIAVEWESNGQPENNYKTTPPVLDSDGSFFLYSKLTVDKSRWQQGNVFSCSVMHEALHNHYTQKSLSLSPGGGGGSGGGGSGGGGSDVQMTQSPSTLSASVGDRVTITCQASENIYSSLAWYQQKPGKPPKLLMYDVSDLASGVPSRFSGSGSGTEFTLTISSLQPDDFATYFCLGGYPSNNYRMAFGCGTKVEIKGGGGSGGGGSGGGGSGGGGSEQQLLESGGGLVQPGGSLRLSCAASGFSFSSSAWIVWVRQAPGKCLEWIGVINTVSVNAYYASWAKGRFTISKDSSKNTVYLQMNSLRAEDTAVYFCARNPYNSLRLWGPGTLVTVSS
light: ELVMTQSPATLSVSPGERATLSCRASEDIENYLAWYQQKPGQPPRLLIYRASTLSSGVPARFSGSGSGTEFTLTISSLQSEDFAVYYCQQGYRNSNVDNPFGGGTKVEIKRTVAAPSVFIFPPSDEQLKSGTASVVCLLNNFYPREAKVQWKVDNALQSGNSQESVTEQDSKDSTYSLSSTLTLSKADYEKHKVYACEVTHQGLSSPVTKSFNRGEC
notes: HC format, optimized Fc; also called humanized CD79b/NKp46 bispecific antibody; humanized NK cell engager
B7: h44G2/h6-1 (LC) Fc-optimized (bispecific antibody, human IgG1, kappa)
heavy: EQQLVETGGGLIQPGGSLRLSCAASGFTINIDYWISWVRQAPGKGLEWIGIIDPGDGTTYFAIWVSGRFTISFDNSKNTVYLQMNSLRAEDTAVYFCVREFSASAYQYDLWGPGTLVTVSSASTKGPSVFPLAPSSKSTSGGTAALGCLVKDYFPEPVTVSWNSGALTSGVHTFPAVLQSSGLYSLSSVVTVPSSSLGTQTYICNVNHKPSNTKVDKKVEPKSCDKTHTCPPCPAPELLAGPSVFLFPPKPKDTLMISRTPEVTCVVVDVSHEDPEVKFNWYVDGVEVHNAKTKPREEQYNSTYRVVSVLTVLHQDWLNGKEYKCKVSNKALPLPEEKTISKAKGQPREPQVYTLPPSRDELTKNQVSLTCLVKGFYPSDIAVEWESNGQPENNYKTTPPVLDSDGSFFLYSKLTVDKSRWQQGNVFSCSVMHEALHNHYTQKSLSLSPGK
light: ELVMTQSPATLSVSPGERATLSCRASEDIENYLAWYQQKPGQPPRLLIYRASTLSSGVPARFSGSGSGTEFTLTISSLQSEDFAVYYCQQGYRNSNVDNPFGGGTKVEIKRTVAAPSVFIFPPSDEQLKSGTASVVCLLNNFYPREAKVQWKVDNALQSGNSQESVTEQDSKDSTYSLSSTLTLSKADYEKHKVYACEVTHQGLSSPVTKSFNRGECGGGGSGGGGSGGGGSDVQMTQSPSTLSASVGDRVTITCQASENIYSSLAWYQQKPGKPPKLLMYDVSDLASGVPSRFSGSGSGTEFTLTISSLQPDDFATYFCLGGYPSNNYRMAFGCGTKVEIKGGGGSGGGGSGGGGSGGGGSEQQLLESGGGLVQPGGSLRLSCAASGFSFSSSAWIVWVRQAPGKCLEWIGVINTVSVNAYYASWAKGRFTISKDSSKNTVYLQMNSLRAEDTAVYFCARNPYNSLRLWGPGTLVTVSS
notes: LC format, optimized Fc; also called humanized CD79b/NKp46 bispecific antibody; humanized NK cell engager

One assay concerns the target T1, CD79b on target B cell lines (Ramos (CD79b+) cells; Daudi cells) (UniProt P40259 29-229, limits assumed).
T1 construct: whole, on cells; On cells CD79b stands in the B cell receptor complex with CD79a; also called Ramos (CD79+) cells; CD79b expression cells
T1 sequence (looked up): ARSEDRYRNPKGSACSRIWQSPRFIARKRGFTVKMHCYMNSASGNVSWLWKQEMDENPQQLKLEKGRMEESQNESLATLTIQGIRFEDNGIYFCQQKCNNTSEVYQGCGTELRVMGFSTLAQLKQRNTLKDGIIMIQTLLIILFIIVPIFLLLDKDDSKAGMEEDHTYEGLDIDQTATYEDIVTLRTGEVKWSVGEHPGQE
Nature of the assay: flow cytometry on Ramos cells, anti-human IgG PE. On the technique in general: Flow cytometry measures light scatter and fluorescence of single cells or particles in a stream.
Turning to B1, the binding result is reported as “binds”.
On the same count and under the same terms, the result for B2 reads “binds”; that for B3, “binds”.

Another assay concerns the target T1, CD79b on target B cell lines (Ramos …). Nature of the assay: flow cytometry on Ramos cells, anti-human IgG Fc PE.
B4: the binding result is given as “binds”.
As for B5, the binding result is listed as “binds”.
The same measure, in the same setting: the same measure for B6: “binds”; for B7: “binds”.

A further assay deals with T2, human NKp46 expressed on cells (primary human NK cells; CHOK1-hNKp46 cells) (human, UniProt O76036 22-304).
T2 construct: whole, on cells; also called cell surface expressed NKp46; NCR1
T2 sequence (O76036 22-304): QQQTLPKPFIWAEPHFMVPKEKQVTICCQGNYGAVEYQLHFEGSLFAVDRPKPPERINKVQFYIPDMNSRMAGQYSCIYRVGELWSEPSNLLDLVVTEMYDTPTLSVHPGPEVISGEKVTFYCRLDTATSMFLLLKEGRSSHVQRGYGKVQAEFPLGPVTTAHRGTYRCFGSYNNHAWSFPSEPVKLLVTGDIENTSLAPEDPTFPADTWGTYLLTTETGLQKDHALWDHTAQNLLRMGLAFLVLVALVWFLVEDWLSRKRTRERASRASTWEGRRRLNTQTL
As to the kind of experiment: flow cytometry on CHOK1-hNKp46 cells, anti-human IgG Fc PE.
With B4, the binding result is given as “binds”.
Regarding B5, the binding result is recorded as “binds”.
Still for that read-out and setting: the result for B6 reads “binds”; that for B7, “binds”.

Another assay addresses T2, human NKp46 expressed on cells (primary …). As to the kind of experiment: flow cytometry on purified CD56+ human NK cells, anti-human IgG PE.
Consider B1, for which the binding result is listed as “binds”.
Regarding B2, the binding result was “binds”.
Turning to B3, the binding result is recorded as “binds”.
